In article doi:10.1101/2021.04.23.441157:

How the values were obtained:
Experiment in all cases: TIRF microscopy of filaments on supported lipid bilayers
[1] = biological target: Cdc11a-Cdc11bCTE-capped septin octamer (Ashbya gossypii | S. cerevisiae) (UniProt P32468)
[2] = biological target: Cdc11a-capped septin hetero-octamer (recombinant Ashbya gossypii septin complex) (Ashbya gossypii | S. cerevisiae) (UniProt P32468)
[3] = biological target: Cdc11b-Cdc11aCTE-capped septin octamer (Ashbya gossypii | S. cerevisiae) (UniProt P32468)
[4] = biological target: Cdc11b-capped septin hetero-octamer (recombinant Ashbya gossypii septin complex) (Ashbya gossypii | S. cerevisiae) (UniProt P32468)

Substance: Cdc11a-Cdc11bCTE-capped septin octamer (from UniProt P32468 1-407) (complex)
- average filament length at steady state [1]: 0.94 µm
- average filament length at steady state, in octamers [1]: 29 octamers

Substance: Cdc11a-capped septin hetero-octamer (recombinant Ashbya gossypii septin complex) (from UniProt P32468 1-407)
- average filament length at steady state [2]: 0.72 µm
- average filament length at steady state, in octamers [2]: 23 octamers

Substance: Cdc11b-Cdc11aCTE-capped septin octamer (from UniProt P32468 1-407) (complex)
- average filament length at steady state [3]: 0.55 µm
- average filament length at steady state, in octamers [3]: 17 octamers

Substance: Cdc11b-capped septin hetero-octamer (recombinant Ashbya gossypii septin complex) (from UniProt P32468 1-407)
- average filament length at steady state [4]: 0.52 µm
- average filament length at steady state, in octamers [4]: 16 octamers
